PMC8657308
Read-outs that look alike come from different tables or passages of the source.

Key:
[1] = target: PahZ2_(KT-1), poly(aspartic acid) hydrolase-2 of Sphingomonas sp. KT-1 (Sphingomonas sp. KT-1); assay: SEC
[2] = target: PahZ2_(KT-1), poly(aspartic acid) hydrolase-2 of Sphingomonas sp. KT-1 (Sphingomonas sp. KT-1); assay: SEC; remark: listed apart in the source

Substance: PahZ2_(KT-1), poly(aspartic acid) hydrolase-2 of Sphingomonas sp. KT-1 (enzyme)
- stoichiometry N [1]: 1.94
- stoichiometry N [2]: 2.4
